# Reference: patent publication US6008029A, “Purified coprinus laccases and nucleic acids encoding the same” (Novo Nordisk Biotech Inc., priority 1996, dated 1999)
# B1: recombinant Coprinus cinereus laccase Lcc1 (SEQ ID NO:27), expressed in Aspergillus oryzae (Coprinopsis cinerea) (protein)
# chain: QIVNSVDTMTLTNANVSPDGFTRAGILVNGVHGPLIRGGKNDNFELNVVNDLDNPTMLRPTSIHWHGLFQRGTNWADGADGVNQCPISPGHAFLYKFTPAGHAGTFWYHSHFGTQYCDGLRGPMVIYDDNDPHAALYDEDDENTIITLADWYHIPAPSIQGAAQPDATLINGKGRYVGGPAAELSIVNVEQGKKYRMRLISLSCDPNWQFSIDGHELTIIEVDGQLTEPHTVDRLQIFTGQRYSFVLDANQPVDNYWIRAQPNKGRNGLAGTFANGVNSAILRYAGAANADPTTSANPNPAQLNEADLHALIDPAAPGIPTPGAADVNLRFQLGFSGGRFTINGTAYESPSVPTLLQIMSGAQSANDLLPAGSVYELPRNQVVELVVPAGVLGGPHPFHLHGHAFSVVRSAGSSTYNFVNPVKRDVVSLGVTGDEVTIRFVTDNPGPWFFHCHIEFHLMNGLAIVFAEDMANTVDANNPPVEWAQLCEIYDDLPPEATSIQTVVRRAEPTGFSAKFRREGL
# Experiments:
# [1] = substrate: CCn1c(=NN=c2sc3cc(S(=O)(=O)O)ccc3n2CC)sc2cc(S(=O)(=O)O)ccc21; assay: purified protein, by the assay type; details: other: pH 5.3, ABTS oxidation, 20.0 °C
# [2] = substrate: COc1cc(C=NN=Cc2cc(OC)c(O)c(OC)c2)cc(OC)c1O; assay: purified protein, by the assay type; format: biochemical, Coprinus cinereus; details: other: pH 5.3, syringaldazine oxidation, 20.0 °C
# Experimental: Laccase activity is determined by syringaldazine oxidation. Specifically, 60 μl of syringaldazine stock solution (0.28 mM in 50% ethanol) and 20 μl of laccase sample are mixed with 0.8 ml of preheated Britton-Robinson buffer solution and incubated at 20° C. The oxidation is monitored at 530 nm over 5 minutes and activity is expressed as "SOU" μmole syringaldazine oxidized per minute ("SOU"). Britton-Robinson buffers with various pHs are used.
# The values for Km and kcat are determined by fitting initial rates (v=ΔA/Δt/Δe; Δe: extinction coefficient change), laccase concentration (E), and substrate concentration (S) into v=kcat *E*S/(Km +S) with the Prizm nonlinear regression software (GraphPad, San Diego, Calif.).
protein,measurement,setting,value
B1,Km,[1],23 ± 3 µM
same,kcat,[1],18.17 ± 0.5 s⁻¹
same,Km,[2],26 ± 6 µM
same,kcat,[2],3 ± 0.333 s⁻¹
